From patent US20260184765A1 (INVENRA, published 2026)

Target: CTLA4 (UniProt P16410 36-161, limits assumed)
Test: Octet BLI, antigen immobilized, B-Body as analyte
Text: In each instance, the antigen is immobilized and the B-Body is the analyte.

Chain of CTLA4 (P16410 36-161 limits assumed): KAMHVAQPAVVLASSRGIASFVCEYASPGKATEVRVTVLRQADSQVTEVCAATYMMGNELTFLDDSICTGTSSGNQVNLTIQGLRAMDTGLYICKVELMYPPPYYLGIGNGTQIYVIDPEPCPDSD

- binding result: no binding
B1: bivalent bispecific B-Body "BC1" (bispecific antibody)
chain 1: not shown
chain 2: EVQLVESGGGLVQPGGSLRLSCAASGFTFSDYDIHWVRQAPGKGLEWVGDITPYDGTTNYADSVKGRFTISADTSKNTAYLQMNSLRAEDTAVYYCARLVGEIATGFDYWGQGTLVTVSSASPREPQVYTDPPSRDELTKNQVSLTCLVKGFYPSDIAVEWESNGQPENNYKTTPPVLDSDGSFFLYSKLTVDKSRWQQGNVFSCSVMHEALHNHYTQKSLSLSGEC
chain 3: not shown
chain 4: QVQLVESGGGVVQPGRSLRLDCKASGITFSNSGMHWVRQAPGKGLEWVAVIWYDGSKRYYADSVKGRFTISRDNSKNTLFLQMNSLRAEDTAVYYCATNDDYWGQGTLVTVSSASTKGPSVFPLAPSSKSTSGGTAALGCLVKDYFPEPVTVSWNSGALTSGVHTFPAVLQSSGLYSLSSVVTVPSSSLGTQTYICNVNHKPSNTKVDKKVEPPKSC
notes: Specific for PD1 (nivolumab variable regions) and Antigen A; four different chains, one of each; also called bivalent 1×1 bispecific construct BC1
